Assay results as given in publication PMC1874613.
Where two headings read alike, the source gives them in different places.

Key:
Snu13p [1] = biological target: T1, Snu13p (yeast, UniProt P39990 1-126); assay: EMSA
T1 sequence: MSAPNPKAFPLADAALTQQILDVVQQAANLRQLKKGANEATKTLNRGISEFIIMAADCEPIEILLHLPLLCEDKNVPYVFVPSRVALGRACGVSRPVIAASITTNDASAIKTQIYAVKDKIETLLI

Snu13p [2] = biological target: T1, Snu13p; assay: EMSA; remark: listed apart in the source
C-SBP2 [3] = biological target: T2, C-SBP2 (human, UniProt Q96T21 515-854); assay: EMSA
T2 sequence: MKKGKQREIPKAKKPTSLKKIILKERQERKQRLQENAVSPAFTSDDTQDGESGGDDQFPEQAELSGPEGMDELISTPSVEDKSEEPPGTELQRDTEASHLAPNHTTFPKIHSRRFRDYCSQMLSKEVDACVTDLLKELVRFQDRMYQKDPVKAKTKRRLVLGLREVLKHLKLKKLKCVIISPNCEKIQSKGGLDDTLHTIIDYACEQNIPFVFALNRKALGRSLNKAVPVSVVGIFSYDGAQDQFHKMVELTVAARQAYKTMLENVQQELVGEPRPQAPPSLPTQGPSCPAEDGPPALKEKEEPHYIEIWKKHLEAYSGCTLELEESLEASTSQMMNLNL

C-SBP2 [4] = biological target: T2, C-SBP2; assay: EMSA; remark: listed apart in the source
Snu13p [5] = biological target: T1, Snu13p; assay: EMSA; remark: listed apart in the source
C-SBP2 [6] = biological target: T2, C-SBP2; assay: EMSA; remark: listed apart in the source
C-SBP2 [7] = biological target: T2, C-SBP2; assay: EMSA; remark: listed apart in the source
Snu13p [8] = biological target: T1, Snu13p; assay: competition

B1: Se1 (G-C)5 to (G.G)5 (structured_RNA)
RNA: GGACCUUUGUACCCCAGAUGAUGGCUUCACUGGUUGAUGGGUACAAAUGGCAG
binding signal (Snu13p [1]): ~20 fold lower affinity than Se1

B2: Se1 (structured_RNA)
RNA: GGACCUUUGUACCCCAGAUGAUGGCUUCACUGCUUGAUGGGUACAAAUGGCAG
Kd (Snu13p [2]): 35 nM
Kd (C-SBP2 [3]): 500 nM

B3: Se4 (structured_RNA)
RNA: GGACCUUUGUACCCCAGAUGAUAGUAAAGCGCGGCUUGAUGGGUACAAAUGGCAG
binding result (C-SBP2 [4]): binds

B4: Se6 (structured_RNA)
RNA: GGACCUUUGUACCCCAGAUGAUAGUAAGGCGCGGCUUGAUGGGUACAAAUGGCAG
binding result (C-SBP2 [4]): binds

B5: Se5 (structured_RNA)
RNA: GGACCUUUGUACCCCAGAUGAUAGUGAGGCGCGGCUUGAUGGGUACAAAUGGCAG
binding result (C-SBP2 [4]): binds

B6: Se2 (structured_RNA)
RNA: GGACCUUUGUACCCCAGAUGACGGCUCAUUUCGUGCUUGAUGGGUACAAAUGGCAG
binding result (C-SBP2 [4]): binds

B7: Se3 (structured_RNA)
RNA: GGACCUUUGUACCCCAGAUGAUGCUUUAUCAGGCGGAUGGGUACAAAUGGCAG
binding result (C-SBP2 [4]): binds

B8: Se1:Ins (structured_RNA)
RNA: GGACCUUUGUACCCCAGAUGAUGGGCCUUCACUGGCCUUGAUGGGUACAAAUGGCAG
Kd (Snu13p [5]): 25 nM
Kd (C-SBP2 [6]): 300 nM

B9: Se1:Ins + loop (structured_RNA)
RNA: GGACCUUUGUACCCCAGUUUAUGAUGGAUCUUCACUGAUCUUGAUCCCCUGGGUACAAAUGGCAG
binding signal (C-SBP2 [7]): 4 fold higher affinity than Se1
binding result (Snu13p [8]): binds
